The nature of the data set: yeast display, Sf9 membrane polyspecificity reagent, FACS + sequencing; frameworks hold sequencing errors. The method in brief: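 A nanobody's polyreactivity label depends on the gate it was sorted from. Yeast display cells were stained with 10% biotinylated, detergent-solubilized Sf9 membrane reagent for 1 hour at 4 °C, enriched on streptavidin microbeads and sorted by FACS. The low and high (top ~1%) gates were set on anti-HA fluorescence for expression and streptavidin fluorescence for reagent binding.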
Consider “QVQLVESGGGLVQAGGSLRLSCAASGRIFRKYDMGWYRPAPGKERELVAAISGTGITYYADSVKGRFTISRDNAKNTVYLQMNSLKPEDTAVYYCARGSKPRAWSWAYPSATSIYDYWGQGTQVTVSS”, for which the “polyreactivity (PSR sort gate)” value was “low polyreactivity”.

On to “QVQLVESGGGLVQAGGSLRLSCAASGRIFRLYAMGWYRQAPGKEREFVATITWIGGRTYYADSVTGRFTISRDNAKNTVYLQMNSLKPEDTAVYYCAADPGYTYEYWGQGTQVTVSS”, for which the “polyreactivity (PSR sort gate)” value is given as “low polyreactivity”.

On to “QVQLVESGGGLVQAGGSLRLSCAASGRIFRLYAMGWYRQAPGKERELVATITSGGTYYADSVKGRFTISRDNAKNTVYLQMNSLKPEDTAVYYCAADVYPGYVGSEEYDYWGQGTQETVSS”, for which the “polyreactivity (PSR sort gate)” value is “low polyreactivity”.

In the case of “QVQLVESGGGLVQAGGSLRLSCAASGRIFRLYAMGWYRQAPGKERELVATITSGGTYYADSVKGRFTISRDNAKNTVYLQMNSLKPEDTAVYYCTARRRLRYDYWGQGTQVTVSS”, the “polyreactivity (PSR sort gate)” value is recorded as “low polyreactivity”.

For the sequence “QVQLVESGGGLVQAGGSLRLSCAASGRIFRLYVMGWYRQAPGKERELVAAITRGGGTYYADSVKGRFTISRDNAKNTVYLQMNSLKPEDTAVYYCAVGTYTIYSGTLYDYKYYWGQGTQVTVSS”, the “polyreactivity (PSR sort gate)” value is given as “low polyreactivity”.

Take “QVQLVESGGGLVQAGGSLRLSCAASGRIFRNYAMGWYRQAPGKERELVAAISYTTGSTYYADSVKGRFTISRDNAKNTVYLQMNSLKPEDTAVYYCATTDWYFKFYYWGQGTQVTVSS”: the “polyreactivity (PSR sort gate)” value was “high polyreactivity”.

Regarding “QVQLVESGGGLVQAGGSLRLSCAASGRIFRPYAMGWYRQAPGKERELVASISWRGSSTYYADSVKGRFTISRDNAKNTVYLQMNSLKPEDTAVYYCAARPYTLAFYRYGYWGQGTQVTVSS”, the “polyreactivity (PSR sort gate)” value is given as “high polyreactivity”.

On to “QVQLVESGGGLVQAGGSLRLSCAASGRIFRQNAMGWYRQAPGKERELVAAIDWNGTSTYADSVKGRFTISRDNAKNTVYLQMNSLKPEDTAVYYCNASESKPTFEYDYWGQGTQVTVSS”, for which the “polyreactivity (PSR sort gate)” value was “low polyreactivity”.

Consider “QVQLVESGGGLVQAGGSLRLSCAASGRIFRQYAMGWYRQAPGKEREFVAGISTTGGSTYYADSVKGRFTISRDNAKNTVYLQMNSLKPEDTAVYYCAVRINWSRWYHYYTYNYWGQGTQVTVSS”, for which the “polyreactivity (PSR sort gate)” value is given as “high polyreactivity”.

Take “QVQLVESGGGLVQAGGSLRLSCAASGRIFRRNVMGWYRQAPGKERELLAAIRGTGSTTYADSVKGRFTISRDNAKNTVYLQMNSLKPEDTAVYYCNAYKGQTGGGGRYGYWGQGTQVTVSS”: the “polyreactivity (PSR sort gate)” value is recorded as “high polyreactivity”.

On to “QVQLVESGGGLVQAGGSLRLSCAASGRIFRRYAMGWYRQAPGKEREFVAAISYGGGSTYYADSVKGRFTISRDNAKNTVYLQMNSLKPEDTAVYYCNADEVVWGYNYWGQGTQVTVSS”, for which the “polyreactivity (PSR sort gate)” value was “low polyreactivity”.

As for “QVQLVESGGGLVQAGGSLRLSCAASGRIFRRYAMGWYRQAPGKERELVAAISSGGSTNYADSVKGRFTLSRDNAKNTVYLQMNSLKPEDTAVYYCAARRTATTSRAYYYWGQGNQVTVSS”, the “polyreactivity (PSR sort gate)” value was “high polyreactivity”.

For “QVQLVESGGGLVQAGGSLRLSCAASGRIFRRYAMGWYRQAPGKERELVAAISSGGSTYYADSVKGRFTISRDNAKKTVYLQMNSLKPEDTAVYYCNAKVGAYLNYGYWGQGTQVTVSS”, the “polyreactivity (PSR sort gate)” value is reported as “low polyreactivity”.

In the case of “QVQLVESGGGLVQAGGSLRLSCAASGRIFRRYAMGWYRQAPGKERELVAAISSGGSTYYADSVKGRFTISRDNAKNTVYLQMNSLKPEDTAVYYCNAIVGAYLNYGYWGQGTQVTVSS”, the “polyreactivity (PSR sort gate)” value is reported as “low polyreactivity”.

“QVQLVESGGGLVQAGGSLRLSCAASGRIFRRYAMGWYRQAPGKERELVAAITSGSSTNYADSVKGRFTISRDNAKNTVYLQMNSLKPEDTAVYYCNAKLRGYYYSRYNYWGQGTQVTVSS”: the “polyreactivity (PSR sort gate)” value is reported as “high polyreactivity”.

For the sequence “QVQLVESGGGLVQAGGSLRLSCAASGRIFRRYAMGWYRQAPGKERELVASISSGGSTNYADSVKGRFTISRDNAKNTVYLQMNSLKPEDTAVYYCNVYYGYFRSRYGYWGQGTQVTVSS”, the “polyreactivity (PSR sort gate)” value is recorded as “high polyreactivity”.

On to “QVQLVESGGGLVQAGGSLRLSCAASGRIFRSNAMGWYRQAPGKERELVAAINNRDTSTYADSVKGRFTISRDNAKNTVYLQMNSLKPEDTAVYYCAARYQYYSTYGVTLDYWGQGTQVTVSS”, for which the “polyreactivity (PSR sort gate)” value is listed as “low polyreactivity”.

For “QVQLVESGGGLVQAGGSLRLSCAASGRIFRSNAMGWYRQAPRKERELVAVITTAGSTNYADSVKGRFTISRDNAKNTVYLQMNSLKQEDTAVYYCATENGTRKRRYDYWGQGTQVTVSS”, the “polyreactivity (PSR sort gate)” value is given as “low polyreactivity”.

Consider “QVQLVESGGGLVQAGGSLRLSCAASGRIFRSNAMGWYSQAPGKERELVAAITLRGGSTFYADSVKGRFTISRDNAKNTVYLQMNSLKPEDTAVYYCAARSYWSRSIWSPYDYWGQGTQVTVSS”, for which the “polyreactivity (PSR sort gate)” value is on record as “high polyreactivity”.

In the case of “QVQLVESGGGLVQAGGSLRLSCAASGRIFRSNGMGWCRQAPGKERELVAVITPRSGTTSYADSVKGRFTISRDNAKNTVYLQRNSLKPEDTAVYYCAADSDWYPSPYDYWGQGTQVTVSS”, the “polyreactivity (PSR sort gate)” value is on record as “high polyreactivity”.

“QVQLVESGGGLVQAGGSLRLSCAASGRIFRSYAMGWYRQAPGKERELVAAITWGGGRTYYADSVKGRFTISRDNAKNTVYLQMNSLKPEDTAVYYCNTLAYPYYRGSKYDYWGQGTQVTVSS”: the “polyreactivity (PSR sort gate)” value is listed as “high polyreactivity”.

As to “QVQLVESGGGLVQAGGSLRLSCAASGRIFRSYAMGWYRQAPGKERELVAAITWSGGSTYYADSVKGRFTISRDNAKNTVYLQMDSLKPEDTAVYYCARVVTKKYSHTGYEYWGQGTQVTVSS”, the “polyreactivity (PSR sort gate)” value was “high polyreactivity”.

Take “QVQLVESGGGLVQAGGSLRLSCAASGRIFRSYAMGWYRQAPGKERELVADISISGGRTYYADSVKGRFTISRDNAKNTVYLQMNSLKPEDTAVYYCAARTYDRNRQLRRQWYDYWGQGTQVTVSS”: the “polyreactivity (PSR sort gate)” value was “high polyreactivity”.

Regarding “QVQLVESGGGLVQAGGSLRLSCAASGRIFRSYVMGWYRQAPGKERELVAVISKNGGTTYYADSVKGRFTISRDNAKNTVYLQMNSLKPEDTAVYYCAADFRYRSQPGWGARRNGYYWGQGTQVTVSS”, the “polyreactivity (PSR sort gate)” value was “high polyreactivity”.

In the case of “QVQLVESGGGLVQAGGSLRLSCAASGRIFRTYAMGWYRQAPGKERELVAAISYSGGSTFYADSVKGRFTISRDNAKNTVYLQMNSLKPEDTAVYYCAADSRAKRYYWGQGTQVTVSS”, the “polyreactivity (PSR sort gate)” value is “high polyreactivity”.

Consider “QVQLVESGGGLVQAGGSLRLSCAASGRIFRVNAMGRYRQAPGKERELVAAITRSGGSTYYADSVKGRFTISRDNAKNTVYLQRNSLKPEDTAVYYCNADPRLRQTRDYWGQGTQVTVSS”, for which the “polyreactivity (PSR sort gate)” value is “high polyreactivity”.

On to “QVQLVESGGGLVQAGGSLRLSCAASGRIFRVNTMGWSRQAPGKERELVAAIRSSGTRPYYADSVKGRFTISRDHAKNTVYLQMNSLIPEDTAVYYCAAEHYWWYVFPSLWGEDDYWGQGTQVTVSS”, for which the “polyreactivity (PSR sort gate)” value is listed as “high polyreactivity”.

As for “QVQLVESGGGLVQAGGSLRLSCAASGRIFRVYAMGWYRQEPGKERELVAGISFRGASTYYADSVKGRFTISRDNAKNTVYLQMNSLKPEDTAVYYCAAALPVQYRDMYSWGQGTQVTVSS”, the “polyreactivity (PSR sort gate)” value is on record as “high polyreactivity”.

As for “QVQLVESGGGLVQAGGSLRLSCAASGRIFRVYAMGWYSQAPGKERELVASISSGGSTNYADSVKGRFTISRDNANNTVYLQMNSLKPEDTAVYYCAADRSGSFYKLDYWGQGTHVTVSS”, the “polyreactivity (PSR sort gate)” value is “low polyreactivity”.

Regarding “QVQLVESGGGLVQAGGSLRLSCAASGRIFRWNAMGWYRQAPGKERELVAVISSGGSTNYADSVKGRFTISRDNAKNTVYLQMNSLKPEDTAVYYCAKGLIRYSHLDYWGQGTQVTVSS”, the “polyreactivity (PSR sort gate)” value is recorded as “low polyreactivity”.

For “QVQLVESGGGLVQAGGSLRLSCAASGRIFRWYAMGWYRQAPGKERELVAAITRSGSTTYYADSVKGRFTISRDNAKNAVYLQMNSLKPEDTAVSYSAAGYRGGYGWSVRMDYWGQGTQVTVSS”, the “polyreactivity (PSR sort gate)” value is “high polyreactivity”.

“QVQLVESGGGLVQAGGSLRLSCAASGRIFRWYAMGWYRQAPGKERELVARITSGSSTYYADSVKGRFTISRDNAKNTVYLQMHSLKPEDTAVYYCATRTLQPGYTYPRYYWGQGTQVTVSS”: the “polyreactivity (PSR sort gate)” value is “high polyreactivity”.

Turning to “QVQLVESGGGLVQAGGSLRLSCAASGRIFRYKAMGGYRQAPGKEREFVAAISSSGGSTFYADSVKGRFTISRDNAKNTVYLQMNSLIPEDTAAYYCAADDAGFWYYYYGRYVTFDYWGQGTQVTVSS”, the “polyreactivity (PSR sort gate)” value was “low polyreactivity”.

Consider “QVQLVESGGGLVQAGGSLRLSCAASGRIFRYNAMGWYRQAPGKERELVAAIRFSGGSTYYADSVKGRFTISRDNAKNTVYLQMNSLKPEYSAVYYCAKVYFRVQSGMDYWGQGTQVTVSS”, for which the “polyreactivity (PSR sort gate)” value is “low polyreactivity”.

Take “QVQLVESGGGLVQAGGSLRLSCAASGRIFRYNAMGWYRQAPGKERELVAAISGSGDRMYYADSVKGRFTISRDNAKNTVYFHMNSLKPEDTAVYYCAADVVWRQYGSWFYYWGQGTQVTVSS”: the “polyreactivity (PSR sort gate)” value was “high polyreactivity”.

For “QVQLVESGGGLVQAGGSLRLSCAASGRIFRYNAMGWYRQAPGKERELVAAISRSGGSTYYADSVKGRFTISRDNAKNTVYLQINSLKPEDTAVYYCAVGSPYGGRAPWVRGGDYWGQGTQVTVSS”, the “polyreactivity (PSR sort gate)” value was “high polyreactivity”.

Turning to “QVQLVESGGGLVQAGGSLRLSCAASGRIFRYNAMGWYRQAPGKERELVAAITWDGGSTYYADSVKGRFTISRDNAKNTVYLQMNSLKPEDTAVYYCNAVTRSYYSYYYWGQGTQVTVSS”, the “polyreactivity (PSR sort gate)” value is “high polyreactivity”.

For the sequence “QVQLVESGGGLVQAGGSLRLSCAASGRIFRYNAMGWYRQAPGKERELVASINQRGGSTYYADSVKGRFTISRDNAKNTVYLQMNSLKPEDTAVYYCAKRFNSGYYYWGQGTQVTVSS”, the “polyreactivity (PSR sort gate)” value was “high polyreactivity”.

On to “QVQLVESGGGLVQAGGSLRLSCAASGRIFRYNAMGWYRQAPGKERELVATITDGGSTSYADSVKGRFTISRDNAKNTVYLQMNSLKPEDTAVYYCARDPLPSYWKVWSRPTFDYWGQGTQVTVSS”, for which the “polyreactivity (PSR sort gate)” value is given as “low polyreactivity”.

On to “QVQLVESGGGLVQAGGSLRLSCAASGRIFRYNAMGWYRQAPGKETELVAVFSGSGGSTYYADSVKGRFTISRDNAKHTVYVQMNSLKPEDTAVYYCAAQFHVSWYNYWGQGTQVTVSS”, for which the “polyreactivity (PSR sort gate)” value was “low polyreactivity”.

As for “QVQLVESGGGLVQAGGSLRLSCAASGRIFRYYAMGWYIQAPGKERELVAAISKSGGGTFYADSVKGRFTISRDNAKNTVYLQMNSLKPEDTEVYYCAARDKGLGKHDYWGQGTQVTVSS”, the “polyreactivity (PSR sort gate)” value is “low polyreactivity”.

The values above are taken from the nanobody polyreactivity screen of Harvey et al. (2022).
